Measurements published in the supplement of paper PMC10724198.
± gives the standard deviation of the averaged measurements.

Tested on: Saccharomyces cerevisiae
Assay: protein stability index of tFT-peptide fusion (C-terminal peptide) (PSI (0-1 scale)); higher = more stable (slower turnover)
Settings: genetic background: cdc34-1; temperature: 37 C
Method: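 MPS profiling in S. cerevisiae of the tFT-X12 degron library: putative degron peptides plus stable controls, 12 aa, fused to the C-terminus of a sfGFP-mCherry timer. Cells are FACS-sorted into 8 mCherry/sfGFP bins and deep-sequenced. PSI runs from 0 (unstable) to 1 (stable). Backgrounds are wild type, das1Δ and doa10Δ at 30 °C, and wild type, das1Δ, cdc34-1 and cdc53-1 at 37 °C; 2-3 technical replicates each.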
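Note: PSI is a weighted mean of sequencing reads over stability bins, variants kept only with over 10 reads, mCherry proximal and sfGFP distal, peptide attached via GGGS linker.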

Sequence | protein stability index
FVFFRFSLLFFF | 0.332 ± 0.022
FVSVAGFIVVVV | 0.47 ± 0.018
FVVGFVCSMVWG | 0.0975 ± 0.012
FVVHPARYYLVL | 0.558 ± 0.077
FVVSCLSWVFLF | 0.429 ± 0.0099
FVVWKDVLVMVR | 0.132 ± 0.03
FWCVFVFFVCVG | 0.255 ± 0.042
FWGRAGVWRLKG | 0.684 ± 0.044
FWSARAVVWWCW | 0.506 ± 0.036
FYFRSSFFTICF | 0.36 ± 0.038
FYPLPASIPDFA | 0.695 ± 0.025
FYSLVQAWSKAP | 0.721 ± 0.037
GCGWVFWVVDWG | 0.463 ± 0.017
GCVMSVCSLAVS | 0.605 ± 0.019
GCYWPKTLGILC | 0.546 ± 0.018
GGFLLRGLFLFL | 0.613 ± 0.032
GGHGGRRRKGVG | 0.36 ± 0.017
GGMVRSCLWCFV | 0.675 ± 0.034
GGSHVWKFYRNF | 0.702 ± 0.09
GGVFYVFFVFVG | 0.19 ± 0.016

Sequence | protein stability index
GGVVAACRGGIG | 0.319 ± 0.011
GGVWSAFAVWVC | 0.188 ± 0.0039
GGWGSSLGVWVG | 0.663 ± 0.026
GIANHAMVIVVL | 0.444 ± 0.011
GIPVRRLLFLVA | 0.419 ± 0.0098
GKWVWSSFVWFG | 0.457 ± 0.033
GLFCCFLCLSVF | 0.241 ± 0.0047
GLFVGCWVFLVL | 0.344 ± 0.0095
GLIICRRCLWCC | 0.49 ± 0.01
GLLSLSGLRWFC | 0.672 ± 0.051
GLSWRLVWVVII | 0.0421 ± 0.0072
GMNGLFFIAMLG | 0.53 ± 0.033
GRLVPVILLKLV | 0.3011 ± 0.0019
GRRPVVDFLPCL | 0.692 ± 0.045
GSITFFKMVQSG | 0.656 ± 0.021
GSLPERPLRYVC | 0.516 ± 0.035
GSRRYYFTWVYQ | 0.454 ± 0.038
GTEFSNVITYLV | 0.713 ± 0.018
GTLVFTYLVLRC | 0.0997 ± 0.012
GTRAGNPDRQRS | 0.678 ± 0.052

Sequence | protein stability index
GVRAGVRRAGVG | 0.308 ± 0.019
GVRRRQLIWSVC | 0.532 ± 0.022
GVVCWLVVTGFL | 0.3865 ± 0.0018
GVVVGVLLVCGW | 0.268 ± 0.028
HCNRLIFWYKCT | 0.508 ± 0.082
HDLRRRVVSVMV | 0.48 ± 0.046
HFLRYCSWFGLL | 0.656 ± 0.032
HNLIRKHAKESS | 0.63 ± 0.083
HPLYWRCVVVLN | 0.213 ± 0.034
HSPPVPFPPPTS | 0.647 ± 0.068
HVRLRFQPVLFV | 0.527 ± 0.027
HVSVIRRGICCA | 0.266 ± 0.014
ICQLLKFPLFWC | 0.542 ± 0.025
ICSRCLVTVLSC | 0.4098 ± 0.0039
ICWVSLYFSMLV | 0.457 ± 0.018
IFAWPFSATIPW | 0.74 ± 0.022
IFFYPFLIFCFV | 0.251 ± 0.022
IFVLLSYYPLFV | 0.263 ± 0.016
IGSARIKLLCYH | 0.6024 ± 0.0044
ILHRRCGLLLQI | 0.47 ± 0.04

Same assay, conditions: genetic background: cdc53-1; temperature: 37 C

Sequence | protein stability index
FVFFRFSLLFFF | 0.344 ± 0.04
FVSVAGFIVVVV | 0.488 ± 0.036
FVVGFVCSMVWG | 0.216 ± 0.024
FVVHPARYYLVL | 0.682 ± 0.019
FVVSCLSWVFLF | 0.528 ± 0.04
FVVWKDVLVMVR | 0.1451 ± 0.00045
FWCVFVFFVCVG | 0.354 ± 0.006
FWGRAGVWRLKG | 0.759 ± 0.019
FWSARAVVWWCW | 0.554 ± 0.026
FYFRSSFFTICF | 0.3875 ± 0.0025
FYPLPASIPDFA | 0.7541 ± 0.0025
FYSLVQAWSKAP | 0.715 ± 0.01
GCGWVFWVVDWG | 0.566 ± 0.0098
GCVMSVCSLAVS | 0.624 ± 0.0098
GCYWPKTLGILC | 0.555 ± 0.02
GGFLLRGLFLFL | 0.652 ± 0.016
GGHGGRRRKGVG | 0.45 ± 0.0053
GGMVRSCLWCFV | 0.755 ± 0.014
GGSHVWKFYRNF | 0.7673 ± 0.0011
GGVFYVFFVFVG | 0.39 ± 0.016

Sequence | protein stability index
GGVVAACRGGIG | 0.3862 ± 0.0037
GGVWSAFAVWVC | 0.338 ± 0.027
GGWGSSLGVWVG | 0.7542 ± 0.0024
GIANHAMVIVVL | 0.469 ± 0.0052
GIPVRRLLFLVA | 0.478 ± 0.013
GKWVWSSFVWFG | 0.541 ± 0.011
GLFCCFLCLSVF | 0.297 ± 0.018
GLFVGCWVFLVL | 0.445 ± 0.0049
GLIICRRCLWCC | 0.527 ± 0.029
GLLSLSGLRWFC | 0.74727 ± 0.00044
GLSWRLVWVVII | 0.0599 ± 0.011
GMNGLFFIAMLG | 0.645 ± 0.041
GRLVPVILLKLV | 0.471 ± 0.015
GRRPVVDFLPCL | 0.7222 ± 0.004
GSITFFKMVQSG | 0.748 ± 0.012
GSLPERPLRYVC | 0.6878 ± 0.004
GSRRYYFTWVYQ | 0.697 ± 0.013
GTEFSNVITYLV | 0.758 ± 0.018
GTLVFTYLVLRC | 0.0693 ± 0.0078
GTRAGNPDRQRS | 0.759 ± 0.011

Sequence | protein stability index
GVRAGVRRAGVG | 0.418 ± 0.0075
GVRRRQLIWSVC | 0.644 ± 0.014
GVVCWLVVTGFL | 0.48 ± 0.0076
GVVVGVLLVCGW | 0.435 ± 0.0061
HCNRLIFWYKCT | 0.745 ± 0.025
HDLRRRVVSVMV | 0.4601 ± 0.0032
HFLRYCSWFGLL | 0.745 ± 0.015
HNLIRKHAKESS | 0.702 ± 0.0032
HPLYWRCVVVLN | 0.243 ± 0.024
HSPPVPFPPPTS | 0.733 ± 0.035
HVRLRFQPVLFV | 0.5455 ± 0.0014
HVSVIRRGICCA | 0.2978 ± 0.0018
ICQLLKFPLFWC | 0.567 ± 0.024
ICSRCLVTVLSC | 0.445 ± 0.0063
ICWVSLYFSMLV | 0.479 ± 0.019
IFAWPFSATIPW | 0.81258 ± 0.00076
IFFYPFLIFCFV | 0.281 ± 0.026
IFVLLSYYPLFV | 0.279 ± 0.012
IGSARIKLLCYH | 0.705 ± 0.014
ILHRRCGLLLQI | 0.506 ± 0.0066
